Consider one molecule from PMC2672617, “Abl Kinase Inhibits the Engulfment of Apopotic Cells in Caenorhabditis elegans” (PLoS Biology, 2009).

Assay [1] deals with GST-ABI-1Δ (N-terminal GST fusion to the product of the abi-1(tm494) allele) (C. elegans) (UniProt Q10929). Nature of the assay: pull-down; GST, GST-ABI or GST-ABIΔ on glutathione beads incubated with 25 μl of a 100 μl 35S-labelled in vitro transcription/translation reaction; 2 h at 4 °C in PBB2 (25 mM HEPES pH 7.6, 150 mM NaCl, 5 mM MgCl2, 0.1 mM EDTA, 0.1% Tween-20, 0.25% BSA); washes with 300 and 250 mM NaCl; SDS-PAGE, autoradiography, phosphorimager quantitation.

Assay [2] addresses T1, GST-ABI-1 (glutathione-S-transferase fused to the N terminus of full-length C. elegans ABI-1) (C. elegans, UniProt Q10929 1-469).
T1 construct: ABI-1, C. elegans homolog of the Abi proteins; full-length abi-1 from cDNA yk1204a12, bp 47-1,456; Cloned in pDEST15 (Gateway). bp 47-1,456 is 1,410 bp, i.e. 469 codons and a stop if the stop codon is included; not shown: GST, N-terminal, kept
T1 sequence (looked up): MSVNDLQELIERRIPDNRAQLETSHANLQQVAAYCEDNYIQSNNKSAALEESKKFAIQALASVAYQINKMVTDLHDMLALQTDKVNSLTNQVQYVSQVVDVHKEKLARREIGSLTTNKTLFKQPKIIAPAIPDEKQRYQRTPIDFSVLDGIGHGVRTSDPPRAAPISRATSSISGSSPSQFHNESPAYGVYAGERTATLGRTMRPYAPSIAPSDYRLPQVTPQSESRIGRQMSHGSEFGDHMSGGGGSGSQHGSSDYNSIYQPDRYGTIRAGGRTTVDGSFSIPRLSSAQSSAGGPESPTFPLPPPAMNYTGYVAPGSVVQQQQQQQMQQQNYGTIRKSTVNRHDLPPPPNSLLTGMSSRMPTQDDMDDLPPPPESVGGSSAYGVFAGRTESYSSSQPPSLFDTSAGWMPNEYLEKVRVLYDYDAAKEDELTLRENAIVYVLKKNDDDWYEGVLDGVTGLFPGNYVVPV
The description is as above. The note with it: one partner purified.

B1: ABL-1(112–611), N-terminal fragment of C. elegans ABL-1 (domain or fragment, UniProt P03949 112-611, looked up)
chain: SSSSSAPLFVALYDFHGVGEEQLSLRKGDQVRILGYNKNNEWCEARLYSTRKNDASNQRRLGEIGWVPSNFIAPYNSLDKYTWYHGKISRSDSEAILGSGITGSFLVRESETSIGQYTISVRHDGRVFHYRINVDNTEKMFITQEVKFRTLGELVHHHSVHADGLICLLMYPASKKDKGRGLFSLSPNAPDEWELDRSEIIMHNKLGGGQYGDVYEGYWKRHDCTIAVKALKEDAMPLHEFLAEAAIMKDLHHKNLVRLLGVCTHEAPFYIITEFMCNGNLLEYLRRTDKSLLPPIILVQMASQIASGMSYLEARHFIHRDLAARNCLVSEHNIVKIADFGLARFMKEDTYTAHAGAKFPIKWTAPEGLAFNTFSSKSDVWAFGVLLWEIATYGMAPYPGVELSNVYGLLENGFRMDGPQGCPPSVYRLMLQCWNWSPSDRPRFRDIHFNLENLISSNSLNDEVQKQLKKNNDKKLESDKRRSNVRERSDSKSRHSSHHD
modifications: labeled with 35S in vitro
notes: contains the SH3, SH2 and tyrosine kinase domains; Cloned in pDEST14 (Gateway) for expression in vitro; also called N-terminal half of ABL-1; source: in vitro translated (TNT T7 Quick Coupled Transcription/Translation system, Promega)
Consider B1, for which, in assay [1], the fold less ABL-1(112–611) bound than by ABI-1 was 3 fold. Also, the “fold binding in the ABI-1 lane over the GST lane (phosphorimager)” value in assay [2] worked out at 8 fold.
